Patent US20060024300A1

What was measured:
[1] = biological target: CD20 (human) (UniProt P11836); test: cell-based or functional assay
[2] = biological target: CD20 (human) (UniProt P11836); test: Scatchard analysis, cold antibody against 125I-2H7.v16 on WIL2-S cells

Chain of CD20 (human) (P11836 whole entry): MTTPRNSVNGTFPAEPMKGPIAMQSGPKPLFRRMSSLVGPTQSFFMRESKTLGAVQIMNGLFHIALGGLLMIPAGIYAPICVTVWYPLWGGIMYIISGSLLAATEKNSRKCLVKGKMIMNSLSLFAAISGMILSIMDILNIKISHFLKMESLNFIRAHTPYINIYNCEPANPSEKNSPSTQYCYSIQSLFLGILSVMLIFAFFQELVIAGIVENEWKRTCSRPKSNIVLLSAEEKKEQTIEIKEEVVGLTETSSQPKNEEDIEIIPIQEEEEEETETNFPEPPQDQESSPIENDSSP

ADCC on WIL2-S cells, EC50(variant)/EC50(2H7.v16) [1]: 5.3
ADCC on WIL2-S cells, EC50(variant)/EC50(Rituxan) [1]: 1
CDC on WIL2-S cells, EC50(variant)/EC50(Rituxan) [1]: 1
fraction of Annexin V stained Ramos cells at 10 nM crosslinked antibody [1]: 16.5%
fraction of doubly labeled (Annexin V and propidium iodide) Ramos cells at 10 nM [1]: 38%
live Ramos cells counted per 10 s at 10 nM (cells per 10 s) [1]: 3100
Kd [2]: 990 pM
Substance: Rituxan (rituximab) (antibody)
